Experimental findings from article PMC6436931, “Activation of the Endonuclease that Defines mRNA 3′ Ends Requires Incorporation into an 8-Subunit Core Cleavage and Polyadenylation Factor Complex” (Molecular Cell, 2019) are described below.

In data set [1] the target is T1, Rna14;Rna15 (Saccharomyces cerevisiae;Saccharomyces …, UniProt P25298;P25299 1-677;1-296, |).
T1 sequence 1: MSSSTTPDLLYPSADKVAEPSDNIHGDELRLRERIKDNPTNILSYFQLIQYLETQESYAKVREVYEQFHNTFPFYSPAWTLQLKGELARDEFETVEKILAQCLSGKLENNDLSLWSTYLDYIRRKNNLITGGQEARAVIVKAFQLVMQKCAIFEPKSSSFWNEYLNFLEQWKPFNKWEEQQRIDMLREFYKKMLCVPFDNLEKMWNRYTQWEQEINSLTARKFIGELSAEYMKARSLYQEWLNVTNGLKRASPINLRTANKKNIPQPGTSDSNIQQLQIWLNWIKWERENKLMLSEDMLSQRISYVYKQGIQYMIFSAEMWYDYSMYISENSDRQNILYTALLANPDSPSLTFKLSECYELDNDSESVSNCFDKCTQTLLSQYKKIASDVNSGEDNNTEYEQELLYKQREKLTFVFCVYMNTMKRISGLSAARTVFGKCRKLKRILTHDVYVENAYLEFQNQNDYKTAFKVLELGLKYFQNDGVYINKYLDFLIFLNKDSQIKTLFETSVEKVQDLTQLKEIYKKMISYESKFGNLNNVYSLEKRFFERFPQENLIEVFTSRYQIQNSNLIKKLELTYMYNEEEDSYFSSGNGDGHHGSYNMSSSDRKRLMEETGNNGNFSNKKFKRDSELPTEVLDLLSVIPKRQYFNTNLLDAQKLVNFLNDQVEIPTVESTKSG
T1 sequence 2: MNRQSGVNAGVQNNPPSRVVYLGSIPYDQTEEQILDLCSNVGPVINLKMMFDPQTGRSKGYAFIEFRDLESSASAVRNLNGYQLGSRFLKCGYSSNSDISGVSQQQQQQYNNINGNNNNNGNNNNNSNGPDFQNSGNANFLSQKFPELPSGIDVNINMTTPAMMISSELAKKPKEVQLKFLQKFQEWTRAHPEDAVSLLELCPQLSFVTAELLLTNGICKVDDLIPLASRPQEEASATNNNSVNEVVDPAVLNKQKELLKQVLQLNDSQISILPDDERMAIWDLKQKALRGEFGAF
As to the kind of experiment: EMSA; EMSA: 50 nM RNA, 0.25-4.0 uM protein, protein diluted in 10 mM HEPES pH 7.9, 150 mM NaCl, 0.5 mM Mg(OAc)2, plus 1x loading dye (orange G, glycerol, EDTA); 30 min on ice; native 6% acrylamide/TBE PAGE. The following applies: protein: recombinant;recombinant; tags: 6H;; chain copies: 2;2; label: 5'-FAM. In general terms: Mobility shift assays separate free from complexed probe on a gel.

The target in data set [2] is T2, Ysh1;Yjr141w (Saccharomyces cerevisiae;Saccharomyces …, UniProt Q06224;P47172 1-779;1-347, |).
T2 sequence 1: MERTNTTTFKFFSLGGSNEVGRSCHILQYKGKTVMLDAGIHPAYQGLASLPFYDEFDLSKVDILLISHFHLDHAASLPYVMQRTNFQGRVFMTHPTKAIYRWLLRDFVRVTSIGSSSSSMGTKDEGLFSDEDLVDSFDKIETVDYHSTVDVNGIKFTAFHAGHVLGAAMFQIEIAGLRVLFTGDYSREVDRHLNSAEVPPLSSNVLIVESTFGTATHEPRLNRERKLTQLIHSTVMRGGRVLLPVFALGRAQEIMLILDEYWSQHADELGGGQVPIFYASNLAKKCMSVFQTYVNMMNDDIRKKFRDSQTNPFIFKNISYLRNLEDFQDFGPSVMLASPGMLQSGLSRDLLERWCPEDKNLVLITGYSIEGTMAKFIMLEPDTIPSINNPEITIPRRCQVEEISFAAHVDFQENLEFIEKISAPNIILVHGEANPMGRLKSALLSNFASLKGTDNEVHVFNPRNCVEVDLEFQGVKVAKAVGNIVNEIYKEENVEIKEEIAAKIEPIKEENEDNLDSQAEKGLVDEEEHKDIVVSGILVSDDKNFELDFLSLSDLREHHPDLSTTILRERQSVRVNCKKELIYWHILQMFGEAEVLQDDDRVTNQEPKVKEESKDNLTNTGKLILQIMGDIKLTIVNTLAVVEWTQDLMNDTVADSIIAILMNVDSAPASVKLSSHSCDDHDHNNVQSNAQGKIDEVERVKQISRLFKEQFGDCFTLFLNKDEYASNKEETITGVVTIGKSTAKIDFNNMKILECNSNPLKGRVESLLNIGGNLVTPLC
T2 sequence 2: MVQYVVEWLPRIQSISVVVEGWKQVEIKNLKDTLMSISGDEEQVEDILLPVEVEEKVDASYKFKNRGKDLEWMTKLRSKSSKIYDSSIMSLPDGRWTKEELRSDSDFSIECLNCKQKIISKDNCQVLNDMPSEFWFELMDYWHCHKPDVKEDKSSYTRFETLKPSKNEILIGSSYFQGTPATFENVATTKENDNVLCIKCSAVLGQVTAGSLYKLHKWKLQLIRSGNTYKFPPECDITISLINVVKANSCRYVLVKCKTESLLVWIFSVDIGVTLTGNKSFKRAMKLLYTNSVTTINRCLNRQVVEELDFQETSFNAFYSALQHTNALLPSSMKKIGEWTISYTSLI
The data set is described as above. The settings on record: protein: recombinant;recombinant; tags: ;SII-3C (N-terminal) in Ysh1-Yjr141w; untagged in Ysh1-Mpe1-Yjr141w; copies: 1;1; label: 5'-FAM.

In data set [3] the target is Cft1;Pfs2;Yth1;Fip1;Pap1;Cft2 (Saccharomyces cerevisiae;Saccharomyces …, UniProt Q06632;P42841;Q06102;P45976;P29468;Q12102 1-1357;1-465;1-208;1-327;1-568;1-859, |||||). As to the kind of experiment: EMSA; CPFpol + Cft2; EMSA: 50 nM RNA, 0.25-4.0 uM protein, protein diluted in 10 mM HEPES pH 7.9, 150 mM NaCl, 0.5 mM Mg(OAc)2, plus 1x loading dye (orange G, glycerol, EDTA); 30 min on ice; native 6% acrylamide/TBE PAGE. The settings on record: protein: recombinant;recombinant;recombinant;recombinant;recombinant;recombinant, tags: ;3C-SII;3C-8H, untagged in CPFpol+Cft2;;SII (Pap1-SII) when alone, untagged in CPFpol and CPFcore;SII (Cft2-SII) when alone, copies: 1;2;1;1;1;1, label: 5'-FAM.

B1: CYC1d EMSA probe (ssRNA)
RNA: AAGAACGUUAUUUAUAUUUCAAAUUUUUCUUUUUU
Take B1: the values for the binding result in data set [1], in data set [2] and in data set [3] were “binds”, “no binding” and “binds”, respectively.

B2: U15 (ssRNA)
RNA: UUUUUUUUUUUUUUU
For B2, the figures for the binding result in data set [1], in data set [2] and in data set [3] were “binds”, “no binding” and “no binding”, respectively.

B3: CYC1f EMSA probe (ssRNA)
RNA: CGUUAUUUAUAUUUCAAAUUUUUCU
Regarding B3, the binding result is recorded as “binds” in data set [1], “no binding” in data set [2] and “binds” in data set [3].

B4: A15 (ssRNA)
RNA: AAAAAAAAAAAAAAA
For B4, the values for the binding result in data set [1], in data set [2] and in data set [3] were “no binding”, “no binding” and “binds”, respectively.

B5: C15 (ssRNA)
RNA: CCCCCCCCCCCCCCC
With B5, the binding result in data set [1], in data set [2] and in data set [3] was “no binding” each time.

B6: G15 (ssRNA)
RNA: GGGGGGGGGGGGGGG
In the case of B6, the binding result is “binds” in data set [1], “no binding” in data set [2] and “binds” in data set [3].
